The values below are quoted from earlier work in PMC5705969.

Targets include Kv1.3 (UniProt P22001); Kv1.2 (UniProt P16389); Kv1.1 (UniProt Q09470).
Chain of UniProt P22001 (P22001 whole entry): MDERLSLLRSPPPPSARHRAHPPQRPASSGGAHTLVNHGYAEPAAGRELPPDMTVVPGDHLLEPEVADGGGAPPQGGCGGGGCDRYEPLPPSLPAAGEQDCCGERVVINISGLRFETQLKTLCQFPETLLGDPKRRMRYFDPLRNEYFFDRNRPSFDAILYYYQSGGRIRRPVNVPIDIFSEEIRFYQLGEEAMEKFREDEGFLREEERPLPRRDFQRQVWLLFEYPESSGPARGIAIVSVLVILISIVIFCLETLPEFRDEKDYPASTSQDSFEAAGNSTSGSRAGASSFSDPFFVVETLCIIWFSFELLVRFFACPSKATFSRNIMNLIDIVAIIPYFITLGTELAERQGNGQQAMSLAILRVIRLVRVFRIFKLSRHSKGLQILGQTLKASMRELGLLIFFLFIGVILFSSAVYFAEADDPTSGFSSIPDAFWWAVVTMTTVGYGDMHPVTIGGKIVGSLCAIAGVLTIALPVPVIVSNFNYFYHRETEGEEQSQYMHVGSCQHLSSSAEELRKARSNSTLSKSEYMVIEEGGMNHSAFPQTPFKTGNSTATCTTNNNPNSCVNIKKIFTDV
Chain of UniProt Q09470 (Q09470 whole entry): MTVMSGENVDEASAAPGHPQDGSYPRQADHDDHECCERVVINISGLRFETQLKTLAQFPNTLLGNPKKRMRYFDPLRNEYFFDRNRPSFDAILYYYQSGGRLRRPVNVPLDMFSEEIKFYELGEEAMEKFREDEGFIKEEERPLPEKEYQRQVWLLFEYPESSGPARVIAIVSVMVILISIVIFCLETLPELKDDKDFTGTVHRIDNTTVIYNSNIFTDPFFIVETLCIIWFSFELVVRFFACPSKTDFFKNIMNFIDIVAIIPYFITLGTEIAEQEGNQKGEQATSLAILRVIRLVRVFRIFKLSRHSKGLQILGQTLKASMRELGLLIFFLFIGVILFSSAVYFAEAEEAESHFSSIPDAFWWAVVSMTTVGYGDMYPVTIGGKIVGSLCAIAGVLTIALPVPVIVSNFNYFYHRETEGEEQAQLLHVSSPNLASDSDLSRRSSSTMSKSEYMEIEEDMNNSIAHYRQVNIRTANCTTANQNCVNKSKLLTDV
Chain of UniProt P16389 (P16389 whole entry): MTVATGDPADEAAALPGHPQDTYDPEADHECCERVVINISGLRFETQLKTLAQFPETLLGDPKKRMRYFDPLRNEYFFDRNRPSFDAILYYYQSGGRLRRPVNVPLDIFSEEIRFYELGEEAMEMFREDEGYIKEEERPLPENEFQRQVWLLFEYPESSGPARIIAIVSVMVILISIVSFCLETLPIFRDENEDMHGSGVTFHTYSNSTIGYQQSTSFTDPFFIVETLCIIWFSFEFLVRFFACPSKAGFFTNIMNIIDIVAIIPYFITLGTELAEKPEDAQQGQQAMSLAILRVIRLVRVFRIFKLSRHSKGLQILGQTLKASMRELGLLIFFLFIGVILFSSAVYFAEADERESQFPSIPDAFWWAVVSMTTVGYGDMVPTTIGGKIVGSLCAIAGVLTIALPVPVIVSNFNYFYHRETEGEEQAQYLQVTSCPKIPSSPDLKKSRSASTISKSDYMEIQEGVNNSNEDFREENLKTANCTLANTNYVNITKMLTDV

Usually Kd stands for a measure of binding affinity in units of concentration. On to AgTx-2 (from UniProt P46111), for which the dissociation constant Kd was 0.05 nM in the series with Kv1.3, 3.4 nM with Kv1.2 and 0.13 nM in the series with Kv1.1.
